According to PMC5612953, “Stable MOB1 interaction with Hippo/MST is not essential for development and tissue growth control” (Nature Communications, 2017):

T1: human NDR1 (residues 24-87), NTR (human, UniProt Q15208 24-87)
T1 chain: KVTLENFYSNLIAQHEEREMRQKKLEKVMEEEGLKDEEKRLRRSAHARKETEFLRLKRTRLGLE

T2: human LATS2 (residues 603-666), NTR (human, UniProt Q9NRM7 603-666)
T2 chain: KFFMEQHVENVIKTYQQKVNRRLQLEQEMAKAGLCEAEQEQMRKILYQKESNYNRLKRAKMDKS

T3: LATS2 (603-666, V610Y) (human, UniProt Q9NRM7 603-666, V610Y)
T3 sequence: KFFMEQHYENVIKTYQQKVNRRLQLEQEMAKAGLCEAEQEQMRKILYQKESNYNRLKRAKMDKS

T4: human NDR2 (residues 25-88), N-terminal regulatory domain (NTR) (human, UniProt Q9Y2H1 25-88)
T4 chain: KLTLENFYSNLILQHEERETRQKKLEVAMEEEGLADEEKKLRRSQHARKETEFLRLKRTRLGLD

T5: human NDR2 (residues 25-88), N-terminal regulatory domain (NTR) (human, UniProt Q9Y2H1 25-88)
T5 construct: human NDR2, residues 25-88 (NTR); also called NDR2 (25-88); NTR of NDR2; source: E. coli BL21(DE3), purified (Ni-NTA)
T5 sequence (looked up): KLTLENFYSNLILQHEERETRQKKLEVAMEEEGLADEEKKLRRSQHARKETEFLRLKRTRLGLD

T6: LATS1 (640-703, V647Y) (human, UniProt O95835 640-703, V647Y)
T6 sequence: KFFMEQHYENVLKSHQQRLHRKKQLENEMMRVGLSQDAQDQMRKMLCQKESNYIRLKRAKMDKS

T7: human LATS1 (residues 640-703), NTR (human, UniProt O95835 640-703)
T7 chain: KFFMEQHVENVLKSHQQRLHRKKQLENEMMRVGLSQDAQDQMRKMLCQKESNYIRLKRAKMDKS

T8: unphosphorylated full-length MOB1A(K104E/K105E), recombinant (human, UniProt Q9H8S9 1-216, K104E | K105E)
T8 sequence: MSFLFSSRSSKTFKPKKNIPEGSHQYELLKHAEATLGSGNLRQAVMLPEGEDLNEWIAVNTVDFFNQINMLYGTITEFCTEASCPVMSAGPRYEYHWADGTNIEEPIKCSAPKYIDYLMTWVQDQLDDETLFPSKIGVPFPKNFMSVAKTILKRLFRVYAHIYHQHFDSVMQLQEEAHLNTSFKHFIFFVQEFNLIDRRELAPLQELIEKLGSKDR

T9: phospho-MOB1(K104E/K105E), full length, recombinant (human, UniProt Q9H8S9 1-216, K104E | K105E, phosphorylated in vitro by MST2 (residues 2-308); the paper names Thr12 and Thr35 as the MST1/2 phosphorylation sites of MOB1)
T9 sequence: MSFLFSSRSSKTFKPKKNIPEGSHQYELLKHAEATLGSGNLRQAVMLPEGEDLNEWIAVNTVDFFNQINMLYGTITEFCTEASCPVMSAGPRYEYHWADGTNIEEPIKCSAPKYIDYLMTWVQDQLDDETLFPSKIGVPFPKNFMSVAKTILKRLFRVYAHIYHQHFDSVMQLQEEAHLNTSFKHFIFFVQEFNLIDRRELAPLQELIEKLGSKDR

T10: non-phosphorylated full-length MOB1A wild-type (human, UniProt Q9H8S9 1-216)
T10 construct: human MOB1A, full length; pET28a vector; also called unphosphorylated full-length MOB1; non-phosphorylated MOB1; source: E. coli, purified as MOB1A (33-216) (Ni-NTA)
T10 sequence (looked up): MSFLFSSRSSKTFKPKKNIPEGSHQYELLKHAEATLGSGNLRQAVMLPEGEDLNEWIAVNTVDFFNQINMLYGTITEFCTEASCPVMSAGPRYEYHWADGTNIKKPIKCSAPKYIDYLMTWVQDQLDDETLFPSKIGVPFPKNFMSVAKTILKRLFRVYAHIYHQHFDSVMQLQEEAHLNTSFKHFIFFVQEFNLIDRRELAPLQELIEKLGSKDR

T11: unphosphorylated full-length MOB1A(K104E/K105E), recombinant (human, UniProt Q9H8S9 1-216, K104E | K105E)
T11 construct: human MOB1A, full length; also called Unphosphorylated MOB1(K104E/K105E); MOB1(K104E/K104E); source: E. coli, purified as MOB1A (33-216) (Ni-NTA)
T11 sequence (looked up): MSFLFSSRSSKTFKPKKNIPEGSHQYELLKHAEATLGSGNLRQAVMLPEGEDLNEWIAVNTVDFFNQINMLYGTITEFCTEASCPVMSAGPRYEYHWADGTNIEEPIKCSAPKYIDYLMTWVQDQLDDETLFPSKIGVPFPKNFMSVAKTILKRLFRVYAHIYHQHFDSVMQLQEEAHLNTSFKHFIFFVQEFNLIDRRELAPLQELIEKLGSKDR

T12: phospho-MOB1(K104E/K105E), full length, recombinant (human, UniProt Q9H8S9 1-216, K104E | K105E, phosphorylated in vitro by MST2 (residues 2-308); the paper names Thr12 and Thr35 as the MST1/2 phosphorylation sites of MOB1)
T12 construct: human MOB1A, full length; source: E. coli, purified (Ni-NTA), then phosphorylated in vitro by MST2 (2-308)
T12 sequence (looked up): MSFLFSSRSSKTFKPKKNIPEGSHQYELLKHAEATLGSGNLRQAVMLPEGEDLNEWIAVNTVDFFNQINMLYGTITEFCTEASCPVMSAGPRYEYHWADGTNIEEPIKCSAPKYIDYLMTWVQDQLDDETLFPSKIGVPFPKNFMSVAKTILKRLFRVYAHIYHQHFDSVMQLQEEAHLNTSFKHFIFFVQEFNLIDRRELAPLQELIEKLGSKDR

B1: MST2-phosphorylated full-length MOB1A (phospho-MOB1) (natural protein, human, UniProt Q9H8S9 1-216, looked up)
chain: MSFLFSSRSSKTFKPKKNIPEGSHQYELLKHAEATLGSGNLRQAVMLPEGEDLNEWIAVNTVDFFNQINMLYGTITEFCTEASCPVMSAGPRYEYHWADGTNIKKPIKCSAPKYIDYLMTWVQDQLDDETLFPSKIGVPFPKNFMSVAKTILKRLFRVYAHIYHQHFDSVMQLQEEAHLNTSFKHFIFFVQEFNLIDRRELAPLQELIEKLGSKDR
modifications: phosphorylated in vitro by MST2 (residues 2-308); the paper names Thr12 and Thr35 as the MST1/2 phosphorylation sites of MOB1
notes: human MOB1A, full length; the methods describe the phosphorylation reaction for MOB1A (33-216); results and legend call phospho-MOB1 full length; also called MST1/2-phosphorylated full-length MOB1; source: E. coli, purified (Ni-NTA), then phosphorylated in vitro by MST2 (2-308)
B2: LATS1 (640-703, V647Y) (domain or fragment, human, UniProt O95835 640-703, looked up)
chain: KFFMEQHYENVLKSHQQRLHRKKQLENEMMRVGLSQDAQDQMRKMLCQKESNYIRLKRAKMDKS
notes: human LATS1, residues 640-703 (NTR); also called LATS1(V647Y); source: E. coli BL21(DE3), purified (Ni-NTA)
B3: LATS2 (603-666, V610Y) (domain or fragment, human, UniProt Q9NRM7 603-666, looked up)
chain: KFFMEQHYENVIKTYQQKVNRRLQLEQEMAKAGLCEAEQEQMRKILYQKESNYNRLKRAKMDKS
notes: human LATS2, residues 603-666 (NTR), codon-optimized synthetic gene; also called LATS2(V610Y); source: E. coli BL21(DE3), purified (Ni-NTA)
B4: human LATS1 (residues 640-703), NTR (domain or fragment, UniProt O95835 640-703, looked up)
chain: KFFMEQHVENVLKSHQQRLHRKKQLENEMMRVGLSQDAQDQMRKMLCQKESNYIRLKRAKMDKS
notes: human LATS1, residues 640-703 (NTR); also called LATS1 (640-703); LATS1 wild-type; source: E. coli BL21(DE3), purified (Ni-NTA)
B5: human LATS2 (residues 603-666), NTR (domain or fragment, UniProt Q9NRM7 603-666, looked up)
chain: KFFMEQHVENVIKTYQQKVNRRLQLEQEMAKAGLCEAEQEQMRKILYQKESNYNRLKRAKMDKS
notes: human LATS2, residues 603-666 (NTR), codon-optimized synthetic gene; also called NTR of LATS2; source: E. coli BL21(DE3), purified (Ni-NTA)
B6: human NDR1 (residues 24-87), NTR (domain or fragment, UniProt Q15208 24-87, looked up)
chain: KVTLENFYSNLIAQHEEREMRQKKLEKVMEEEGLKDEEKRLRRSAHARKETEFLRLKRTRLGLE
notes: human NDR1, residues 24-87 (NTR); also called NTR of NDR1; source: E. coli BL21(DE3), purified (Ni-NTA)
B7: non-phosphorylated full-length MOB1A wild-type (natural protein)
chain: MSFLFSSRSSKTFKPKKNIPEGSHQYELLKHAEATLGSGNLRQAVMLPEGEDLNEWIAVNTVDFFNQINMLYGTITEFCTEASCPVMSAGPRYEYHWADGTNIKKPIKCSAPKYIDYLMTWVQDQLDDETLFPSKIGVPFPKNFMSVAKTILKRLFRVYAHIYHQHFDSVMQLQEEAHLNTSFKHFIFFVQEFNLIDRRELAPLQELIEKLGSKDR
B8: NDR2 (25-88, Y32V) (domain or fragment)
chain: KLTLENFVSNLILQHEERETRQKKLEVAMEEEGLADEEKKLRRSQHARKETEFLRLKRTRLGLD
B9: NDR1 (24-87, Y31V) (domain or fragment)
chain: KVTLENFVSNLIAQHEEREMRQKKLEKVMEEEGLKDEEKRLRRSAHARKETEFLRLKRTRLGLE

Columns and labels:
NDR1 (24-87, Y31V) [1] = target: B9; experiment: ITC; 25 °C, ITC200; 25 mM HEPES pH 7.5, 200 mM NaCl, 1 mM EDTA; ~240 μM MOB1A injected (20 x 2 μl) into ~24 μM NDR1, NDR2, LATS1 or LATS2 fragment in the cell; single-site model
[2] = target: T1, human NDR1 (residues 24-87), NTR; experiment: ITC; MOB1 phosphorylated by MST2
NDR1 (24-87, Y31V) [3] = target: B9; experiment: ITC; MOB1 phosphorylated by MST2
[4] = target: T2, human LATS2 (residues 603-666), NTR; experiment: ITC; MOB1 phosphorylated by MST2
LATS2 (603-666, V610Y) [5] = target: T3, LATS2 (603-666, V610Y); experiment: ITC; MOB1 phosphorylated by MST2
[6] = target: T4, human NDR2 (residues 25-88), N-terminal …; experiment: ITC
[7] = target: B6; experiment: ITC; 25 °C, ITC200; 25 mM HEPES pH 7.5, 200 mM NaCl, 1 mM EDTA; ~240 μM MOB1A injected (20 x 2 μl) into ~24 μM NDR1, NDR2, LATS1 or LATS2 fragment in the cell; single-site model; conditions: both partners purified
[8] = target: T5, human NDR2 (residues 25-88), N-terminal …; experiment: as above; conditions: both partners purified
LATS1 (640-703, V647Y) [9] = target: B2; experiment: as above; conditions: both partners purified
LATS2 (603-666, V610Y) [10] = target: B3; experiment: as above; conditions: both partners purified
LATS1 (640-703, V647Y) [11] = target: T6, LATS1 (640-703, V647Y); experiment: ITC; MOB1 phosphorylated by MST2
[12] = target: T7, human LATS1 (residues 640-703), NTR; experiment: ITC; MOB1 phosphorylated by MST2
NDR2 (25-88, Y32V) = target: B8; experiment: ITC; MOB1 phosphorylated by MST2
[13] = target: T8, unphosphorylated full-length …; experiment: ITC
[14] = target: T9, phospho-MOB1(K104E/K105E), full length, …; experiment: ITC; phosphorylated MOB1
[15] = target: T10, non-phosphorylated full-length MOB1A …; experiment: ITC; 25 °C, ITC200; 25 mM HEPES pH 7.5, 200 mM NaCl, 1 mM EDTA; ~240 μM MOB1A injected (20 x 2 μl) into ~24 μM NDR1, NDR2, LATS1 or LATS2 fragment in the cell; single-site model; conditions: both partners purified
[16] = target: T11, unphosphorylated full-length …; experiment: as above; conditions: both partners purified
[17] = target: T12, phospho-MOB1(K104E/K105E), full length, …; experiment: as above; conditions: both partners purified
LATS1 (640-703, V647Y) [18] = target: T6, LATS1 (640-703, V647Y); experiment: ITC
[19] = target: T1, human NDR1 (residues 24-87), NTR; experiment: ITC
LATS2 (603-666, V610Y) [20] = target: T3, LATS2 (603-666, V610Y); experiment: ITC

Row | Binder | Kd [13] [µM] | Kd [14] [µM] | binding result [15] | binding result [16] | binding result [17] | also measured
1 | B1 |  |  |  |  |  | fold decrease in affinity against wild-type NDR1 (NDR1 (24-87, Y31V) [1]): 20 fold; Kd [2]: 136 nM; Kd (NDR1 (24-87, Y31V) [3]): 2820 nM; Kd [4]: 8.93 µM; Kd (LATS2 (603-666, V610Y) [5]): 1540 nM; Kd [6]: 0.578 µM; fold increase in affinity against LATS1 or LATS2 [7]: ≥ 15 fold; fold increase in affinity against LATS1 or LATS2 [8]: ≥ 15 fold; fold increase in affinity against wild-type LATS1 (LATS1 (640-703, V647Y) [9]): 5 fold; fold increase in affinity against wild-type LATS2 (LATS2 (603-666, V610Y) [10]): 5 fold; Kd (LATS1 (640-703, V647Y) [11]): 4.42 µM; Kd [12]: 19.6 µM; Kd (NDR2 (25-88, Y32V)): 9.9 µM
2 | B2 | 14.1 | 3.83 | binds | binds | binds | 
3 | B3 | 12.2 | 1.3 | binds | binds | binds | 
4 | B4 |  | 16.2 |  |  | binds | 
5 | B5 |  | 8.4 |  |  | binds | 
6 | B6 | 7.94 | 0.124 | binds | binds | binds | 
7 | B7 |  |  |  |  |  | Kd (LATS1 (640-703, V647Y) [18]): 16.9 µM; Kd [6]: 12.3 µM; Kd [19]: 8.06 µM; Kd (LATS2 (603-666, V610Y) [20]): 11.5 µM
8 | B8 |  | 8.7 |  |  |  | 
9 | B9 |  | 2.34 |  |  |  | 
